Assay: yeast display, Sf9 membrane polyspecificity reagent, FACS + sequencing; frameworks hold sequencing errors
Outline: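 Synthetic nanobody libraries on Saccharomyces cerevisiae BJ5465 were galactose-induced for 36–48 hours, stained 1 hour at 4 °C with 10% biotinylated, detergent-solubilized Sf9 membrane reagent and enriched on streptavidin microbeads. FACS then separated cells into low and high (top ~1%) gates by anti-HA (expression) and streptavidin (reagent binding) fluorescence. Genes were colony-PCR amplified, MiSeq 2 × 250 sequenced and CDR-length filtered. A clone's polyreactivity label is that of its gate of origin.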
With “QVQLVESGGGLVQAGGSLRLSCAASGFIFDTYAMGWYRQAPGKERDLVAVISSGGSTYYADSVKGRVTISRDNAKNTVYLQMNSLKPEDTAVYYCAADSGYLGIYGDDYSWGQGTQVSVSS” the “polyreactivity (PSR sort gate)” value was “low polyreactivity”.
In the case of “QVQLVESGGGLVQAGGSLRLSCAASGFIFDWYAMGWYRQAPGKERELVAAISYSGGSTYYADSVKGRFTISRDNAKNTVYLQMNSLKPEDTAVYYCNADIWYGDMDYWGQGTQVTVSS”, the “polyreactivity (PSR sort gate)” value is reported as “high polyreactivity”.
For “QVQLVESGGGLVQAGGSLRLSCAASGFIFDYYAMGWYRQAPGKERELVAAITSRGGSTYYADSVKGRFTISRDNAKNTVYLQMNSLKPEDTAVYYCNKDPHYYATGRFYYWGQGTQVTVSS”, the “polyreactivity (PSR sort gate)” value was “high polyreactivity”.
With “QVQLVESGGGLVQAGGSLRLSCAASGFIFDYYAMGWYRQAPGKERELVASISGDDGRTYYADSVKGRFTISRDNAKNTVYLQMNSLKPEDTAVYYCNAEWGVLNYDYWGQGTQVTVSS” the “polyreactivity (PSR sort gate)” value was “low polyreactivity”.
With “QVQLVESGGGLVQAGGSLRLSCAASGFIFEHYAMGWYRQAPVKERELVARISWRGGSTYYADSVKGRFTISRDNAKNTVYLQMNRLKPEDTAVYYCNALEVVYFGYYPSDYWGQGTQVTVSS” the “polyreactivity (PSR sort gate)” value was “low polyreactivity”.
For “QVQLVESGGGLVQAGGSLRLSCAASGFIFETYAMGWYRQAPGKERELVAAISRGASTYYADSVKGRFTISRDNAKNTVSLQMNSLKQEDTGVYYCAAKRLSWHRYGYWGQGTQVTVSS”, the “polyreactivity (PSR sort gate)” value was “low polyreactivity”.
For “QVQLVESGGGLVQAGGSLRLSCAASGFIFEWYTMGWYRQAPGKERELVARISSDGSTTYADSVKGRFTISRDNAKNTVYLQMNSLKPEDTAVYYCAADVTYPGLKYIFDYWGQGTQVTVSS”, the “polyreactivity (PSR sort gate)” value was “low polyreactivity”.
With “QVQLVESGGGLVQAGGSLRLSCAASGFIFEYNTMGWYIQAPGKERELVAAISFIGGRTYYADSVKRRFTLSRDNAKNTVYLQMNSLKPVDTAVNYCNKRYGGYYSGARRVLYYYWGQGTQVTVSS” the “polyreactivity (PSR sort gate)” value was “high polyreactivity”.
In the case of “QVQLVESGGGLVQAGGSLRLSCAASGFIFFINDMGWYRQAPGKERELVAAISWSGGSTYYADSVKGRFTISRDNAKNTVYLQMNSLKPEDTAVYYCNTDVPTAQYDYWGQGTQVTVSS”, the “polyreactivity (PSR sort gate)” value is reported as “low polyreactivity”.
With “QVQLVESGGGLVQAGGSLRLSCAASGFIFFKNAMGWYRQAPGKERELVDVISTSGGRTYYADSVKGRFTISRDYAKNTVYLQMNSLKPEDTAVYYCAAGDQYKTRRNGYGYWGQGTQVTVSS” the “polyreactivity (PSR sort gate)” value was “high polyreactivity”.
With “QVQLVESGGGLVQAGGSLRLSCAASGFIFFRYAMGWYRQAPGKERELVAAISTRTGITYYSDSVKGRFTISRDNAKNNVYLQMNRLKPEDTAVYDRNVLRSHSLYPFWKYDYWGQGTQVTVSS” the “polyreactivity (PSR sort gate)” value was “high polyreactivity”.
For “QVQLVESGGGLVQAGGSLRLSCAASGFIFFSNAMGWYRQAPGKEMELVAAISRIGVSTYYADSLKGRFTISRDNAKNTVYLQMKSLKPEYTAVYYCNKSNPDYDGLAIHAFDYWGQGTQVTVSS”, the “polyreactivity (PSR sort gate)” value was “low polyreactivity”.
In the case of “QVQLVESGGGLVQAGGSLRLSCAASGFIFFTYAMGWYRQAPGKERELVAAISSRGGSTYYADSVQGRFTISRDNAKKTVYLQMNSLKPEDTAVYYCAAQAYGGYPYGYWGQGTQVTVSS”, the “polyreactivity (PSR sort gate)” value is reported as “high polyreactivity”.
With “QVQLVESGGGLVQAGGSLRLSCAASGFIFFYYAMGWYRQAPGKERELVAAISASGGSTYYADSVKGRFTMSRDNAKNTVYLQMNSLKPEDTAVYYCATDPISRARLYGQRDYWGQGTQVTVSS” the “polyreactivity (PSR sort gate)” value was “high polyreactivity”.
In the case of “QVQLVESGGGLVQAGGSLRLSCAASGFIFFYYAMGWYRQAPGKERELVASINWSGGRTYYADSVKGRFTISRDNAKNTVYLQMNSLKPEDTAVYYCAADRRFSTYDYWGQGTQVTVSS”, the “polyreactivity (PSR sort gate)” value is reported as “high polyreactivity”.
With “QVQLVESGGGLVQAGGSLRLSCAASGFIFFYYAMGWYRQAPGKERELVAVIDRSGGTTYYADSVKGRFTISRDNAKNTVYFQMNILKPEDTAVYYCNADDFTYPSGWGFIYDYWGQGTQVTVSS” the “polyreactivity (PSR sort gate)” value was “low polyreactivity”.
In the case of “QVQLVESGGGLVQAGGSLRLSCAASGFIFGDNAMGWYRQAPGKERELVAAINSGSRTSYADSVKGRFTISRDNAKNTVFLQMNSLKPEDTAVYYCAAESVSSGDNASRYDFWGQGTQVTVSS”, the “polyreactivity (PSR sort gate)” value is reported as “low polyreactivity”.
For “QVQLVESGGGLVQAGGSLRLSCAASGFIFGFYAMGWYRQAPGKERELVADITSSGGSTYYADSVKGRFTISRDNAKYSVYLQMNSLKPEDTAVYYCAADGWWHNFYPGTGLDYWGQGTQVTVSS”, the “polyreactivity (PSR sort gate)” value was “low polyreactivity”.
With “QVQLVESGGGLVQAGGSLRLSCAASGFIFGGNAMGWYRQAPGKERELVAAISSGGRTYYADSVKGRFTISRDNAKNTVYLQMNSLKPEDTAVYYCNAYSYHRGRDYWGQGTQVTVSS” the “polyreactivity (PSR sort gate)” value was “low polyreactivity”.
For “QVQLVESGGGLVQAGGSLRLSCAASGFIFGGNAMGWYRQAPGKERELVAAITARSGSTYYADSVKGRFTISRDNAKNTVYLQMNSLKPEDTAVYYCATPVYRSTYEYDYWGQGTQVTVSS”, the “polyreactivity (PSR sort gate)” value was “low polyreactivity”.
With “QVQLVESGGGLVQAGGSLRLSCAASGFIFGGYAMGWSRQAPGKERELVAAISRSGGSTYYADSVKGRFTISRDNAKNTVYLQMNSLKPEDTAVYYCNAVPRRQGFNYWGQGTQVTVSS” the “polyreactivity (PSR sort gate)” value was “high polyreactivity”.
With “QVQLVESGGGLVQAGGSLRLSCAASGFIFGGYAMGWYIQGHGKERELVAAISSSGGSTYYADSVKGRFTISRDNAKNSVYLQMNSLKPEDTAVYYCAKVGWSRRYYYWGQGTKVTVSS” the “polyreactivity (PSR sort gate)” value was “high polyreactivity”.

Reference: the nanobody polyreactivity screen of Harvey et al. (2022)
